From publication PMC4498406
pKd: −log10 of the molar value.

Molecular target: [Lys]plasminogen (human)
Test: kinetics of conformational plasminogen activation

Work on “streptokinase ALAB49 SK2b variant with Tyr4 substituted by Pro (natural protein)” yielded a pKd of 6.22.
